Measured values: patent CN115611981A (GENOR BIOPHARMA CO LTD, dated 2023)

Target: T1, PD-1 (UniProt Q15116 25-288, limits assumed)
T1 construct: whole, on cells; also called Jurkat/PD-1细胞表面的PD-1; Jurkat/PD1
Assay: Jurkat/PD-1 + CHO/PD-L1 NFAT-luciferase reporter blockade assay (binding inferred)

T1 sequence (Q15116 25-288 limits assumed): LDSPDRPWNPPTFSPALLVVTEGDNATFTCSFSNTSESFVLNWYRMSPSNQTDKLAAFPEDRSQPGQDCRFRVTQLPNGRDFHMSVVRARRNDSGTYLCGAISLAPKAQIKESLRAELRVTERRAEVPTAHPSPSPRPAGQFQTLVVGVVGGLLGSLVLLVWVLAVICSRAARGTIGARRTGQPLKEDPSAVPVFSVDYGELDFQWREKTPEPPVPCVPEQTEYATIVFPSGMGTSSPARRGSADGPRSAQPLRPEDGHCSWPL

B1: G-Ab1 (antibody, human IgG4 S228P, kappa, V domains shown)
VH: QIQLVQSGSELKKPGASVKVSCKASGYTFTNFGMNWVRQAPGQGLKWMGWISGYTREPTYAADFKGRFVISLDTSVSTAYLQISSLKAEDTAVYYCARDVFDYWGQGTLVTVSS
VL: DIVLTQSPASLAVSPGQRATITCRASESVDNYGYSFMNWFQQKPGQPPKLLIYRASNLESGVPARFSGSGSRTDFTLTINPVEADDTANYYCQQSNADPTFGQGTKLEIKR
notes: The control used was an IgG4 isotype control; also called 抗PD-1抗体; G-Ab1抗体
  binding result: binds
